Results taken from patent publication US20050037413A1.

Columns and labels:
glutathione Sepharose-4B = experiment: pull-down from lysate with glutathione Sepharose-4B, SDS-PAGE densitometry, relative to GST on Sepharose-4B
[1] = target: glutathione (GSH) immobilized on dendron-modified controlled pore glass, sample E3 (Fmoc-(9)acid dendron); experiment: pull-down from lysate with E3 beads, SDS-PAGE densitometry, relative to GST on E3
[2] = target: glutathione (GSH) immobilized on dendron-modified controlled pore glass, sample E1 (Fmoc-(3)acid dendron); experiment: pull-down from lysate with E1 beads, SDS-PAGE densitometry, relative to GST on E1
[3] = target: glutathione (GSH) immobilized on dendron-modified controlled pore glass, sample E1 (Fmoc-(3)acid dendron); experiment: GST captured on beads, sample weight adjusted to the same number of GSH, SDS-PAGE densitometry
[4] = target: glutathione (GSH) immobilized on dendron-modified controlled pore glass, sample E3 (Fmoc-(9)acid dendron); experiment: as above

Row | Substance | binding efficiency (relative, GST on the same matrix set at 100%) (glutathione Sepharose-4B) [%] | relative binding capacity (GST on the same matrix set at 100%) [1] [%] | relative binding capacity (GST on the same matrix set at 100%) [2] [%] | Percentage of ligand utilization (%) [3] [%] | Percentage of ligand utilization (%) [4] [%]
1 | GST-PX^p47 (41 kDa), GST fused to the PX domain of p47^phox (from UniProt P08515 1-218) | 104 | 85 | 92 | – | –
2 | GST-Munc-18 fragment (98 kDa) (from UniProt P08515 1-218) | 17 | 23 | 22 | – | –
3 | glutathione S-transferase (GST) (28 kDa) (from UniProt P08515 1-218) (enzyme) | – | – | – | 29 | 31
